Here are results for two molecules from patent US8163700B2, “Inhibitors of myelin-associated glycoprotein (MAG) activity for regulating neural growth and regeneration” (Research Foundation of City University of New York, priority 2002, dated 2012).

Test [1] concerns the target T1, Nogo (Homo sapiens, UniProt Q9NQC3, S458P).
T1 sequence (Q9NQC3 1-1192 S458P): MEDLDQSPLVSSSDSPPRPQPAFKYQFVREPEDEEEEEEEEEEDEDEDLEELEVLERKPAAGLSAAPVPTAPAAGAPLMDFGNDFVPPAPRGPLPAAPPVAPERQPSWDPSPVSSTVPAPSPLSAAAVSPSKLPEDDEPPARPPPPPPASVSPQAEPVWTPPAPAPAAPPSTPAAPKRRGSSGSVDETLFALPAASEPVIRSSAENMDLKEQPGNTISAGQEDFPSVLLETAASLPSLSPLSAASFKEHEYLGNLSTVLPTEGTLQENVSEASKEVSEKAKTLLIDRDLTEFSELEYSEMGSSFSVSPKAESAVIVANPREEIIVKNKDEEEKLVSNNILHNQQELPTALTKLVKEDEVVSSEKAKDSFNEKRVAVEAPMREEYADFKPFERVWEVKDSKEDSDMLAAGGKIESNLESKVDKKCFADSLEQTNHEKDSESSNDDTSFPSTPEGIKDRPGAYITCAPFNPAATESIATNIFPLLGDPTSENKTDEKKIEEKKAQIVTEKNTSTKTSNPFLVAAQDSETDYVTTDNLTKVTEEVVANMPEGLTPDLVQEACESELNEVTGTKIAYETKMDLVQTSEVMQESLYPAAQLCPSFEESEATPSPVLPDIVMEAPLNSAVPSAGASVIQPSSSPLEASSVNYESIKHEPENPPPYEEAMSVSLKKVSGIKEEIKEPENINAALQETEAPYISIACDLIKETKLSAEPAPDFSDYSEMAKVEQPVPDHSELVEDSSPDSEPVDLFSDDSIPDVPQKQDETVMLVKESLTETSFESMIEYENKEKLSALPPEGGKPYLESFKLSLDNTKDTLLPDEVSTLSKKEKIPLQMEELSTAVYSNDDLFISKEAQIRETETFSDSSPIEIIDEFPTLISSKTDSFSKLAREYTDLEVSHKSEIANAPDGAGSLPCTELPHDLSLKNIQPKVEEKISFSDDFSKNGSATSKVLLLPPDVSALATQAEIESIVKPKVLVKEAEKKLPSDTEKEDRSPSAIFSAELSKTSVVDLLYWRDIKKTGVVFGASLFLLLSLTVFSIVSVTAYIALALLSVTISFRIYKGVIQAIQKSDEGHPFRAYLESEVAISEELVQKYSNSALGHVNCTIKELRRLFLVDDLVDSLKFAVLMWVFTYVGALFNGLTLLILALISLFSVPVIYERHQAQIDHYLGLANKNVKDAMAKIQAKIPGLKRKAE
The following applies: described in the art; cited from earlier work.

Test [2] deals with T2, NgR (Homo sapiens, UniProt Q9BZR6).
T2 sequence (Q9BZR6 27-447): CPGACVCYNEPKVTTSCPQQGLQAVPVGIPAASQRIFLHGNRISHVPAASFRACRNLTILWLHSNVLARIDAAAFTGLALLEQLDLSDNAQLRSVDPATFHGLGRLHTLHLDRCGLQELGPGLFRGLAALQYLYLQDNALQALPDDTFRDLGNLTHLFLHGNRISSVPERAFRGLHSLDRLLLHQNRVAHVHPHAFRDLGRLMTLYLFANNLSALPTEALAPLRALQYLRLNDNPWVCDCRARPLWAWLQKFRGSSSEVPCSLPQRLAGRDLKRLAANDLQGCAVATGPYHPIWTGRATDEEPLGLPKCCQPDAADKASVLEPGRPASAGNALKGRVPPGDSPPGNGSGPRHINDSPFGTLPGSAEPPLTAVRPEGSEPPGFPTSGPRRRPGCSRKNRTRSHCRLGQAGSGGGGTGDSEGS
Conditions: described in the art; cited from earlier work.

Test [3] concerns cerebellar neurons. The test is described as follows: Neurite outgrowth of cerebellar neurons on CHO cell monolayers expressing MAG or truncated, deleted or chimeric MAG derivatives (FIG. 1). In kind it is cell-based. Conditions: cerebellar neurons grown overnight on CHO cells expressing the construct, versus control-transfected CHO cells; GAP-43 staining. As for the experimental part:
FIG. 1 Inhibition of neurite outgrowth from cerebellar neurons by truncated MAG or chimeric MAG Cerebellar neurons were isolated (Example 1) and grown overnight on a monolayer of control-transfected CHO cells (clear bar) or a monolayer of CHO cells expressing wild-type MAG or truncated, deleted or chimeric MAG derivatives (grey bars). (See Example 2). Neurons were stained for GAP-43 antigen and neurite length was measured and the average length was calculated for 180-200 neurons (+/−SEM).
Cerebellar neurons were isolated essentially as described in Doherty et al., Nature, 343, pp. 464-66 (1990); Neuron, 5, pp. 209-19 (1990); and Kleitman et al., Culturing Nerve Cells, pp. 337-78, MIT Press, Cambridge, Mass./London, England (G. Banker and K. Goslin, Eds.) (1991). Briefly, for animals up to nine days of age, the cerebellum was removed from two animals, and placed in 5 ml of 0.025% trypsin in PBS, triturated, and incubated for a further 10 minutes (min) at 37° C. […]
Confluent monolayers of control, MAG-, truncated MAG- or chimeric MAG-Sn-expressing CHO cells were established over a 24-hour (h) period in individual chambers of an 8-well tissue culture slide (Lab-Tek). […] The length of the longest neurite for each GAP43-positive neuron was determined using the Biological Detection System image analysis program (Pittsburgh).

Turning to “Nogo-66 amino acid residues 31-55: prior-art peptide of Nogo-66 residues 31-55 (hNogo-A residues 1085-1109 of SEQ ID NO: 9) (EELVQKYSNSALGHVNCTIKELRRL; listed as Homo sapiens)”, in test [1], the “inhibition of axonal outgrowth” value is “inhibit axonal outgrowth”. For the same molecule, the “binding to NgR” value in test [2] is given as “can bind to NgR”.

B1: MAG: full-length MAG containing all five Ig-like domains, expressed on CHO cells (protein, UniProt P20917 1-627, looked up)
chain: MIFLATLPLFWIMISASRGGHWGAWMPSTISAFEGTCVSIPCRFDFPDELRPAVVHGVWYFNSPYPKNYPPVVFKSRTQVVHESFQGRSRLLGDLGLRNCTLLLSTLSPELGGKYYFRGDLGGYNQYTFSEHSVLDIVNTPNIVVPPEVVAGTEVEVSCMVPDNCPELRPELSWLGHEGLGEPTVLGRLREDEGTWVQVSLLHFVPTREANGHRLGCQAAFPNTTLQFEGYASLDVKYPPVIVEMNSSVEAIEGSHVSLLCGADSNPPPLLTWMRDGMVLREAVAKSLYLDLEEVTPGEDGVYACLAENAYGQDNRTVELSVMYAPWKPTVNGTVVAVEGETVSILCSTQSNPDPILTIFKEKQILATVIYESQLQLELPAVTPEDDGEYWCVAENQYGQRATAFNLSVEFAPIILLESHCAAARDTVQCLCVVKSNPEPSVAFELPSRNVTVNETEREFVYSERSGLLLTSILTIRGQAQAPPRVICTSRNLYGTQSLELPFQGAHRLMWAKIGPVGAVVAFAILIAIVCYITQTRRKKNVTESSSFSGGDNPHVLYSPEFRISGAPDKYESEKQRLGSERRLLGLRGESPELDLSYSHSDLGKRPTKDSYTLTEELAEYAEIRVK
modifications: full-length
notes: full-length MAG containing all five Ig-like domains, expressed on CHO cells
Turning to B1, the “inhibition of neurite outgrowth by the expressed MAG construct” value in test [3] is given as “capable of inhibiting neurite outgrowth”.
